{"source": "paper PMC5745072", "proteins": {"B1": {"name": "Glucose oxidase (GOx), mutants A2 and F9: Endo H (protein)", "parent chain": "MQTLLVSSLVVSLAAALPHYIRSNGIEASLLTDPKDVSGRTVDYIIAGGGLTGLTTAARLTENPNISVLVIESGSYESDRGPIIEDLNAYGDIFGSSVDHAYETVELATNNQTALIRSGNGLGGSTLVNGGTWTRPHKAQVDSWETVFGNEGWNWDNVAAYSLQAERARAPNAKQIAAGHYFNASCHGVNGTVHAGPRDTGDDYSPIVKALMSAVEDRGVPTKKDFGCGDPHGVSMFPNTLHEDQVRSDAAREWLLPNYQRPNLQVLTGQYVGKVLLSQNGTTPRAVGVEFGTHKGNTHNVYAKHEVLLAAGSAVSPTILEYSGIGMKSILEPLGIDTVVDLPVGLNLQDQTTATVRSRITSAGAGQGQAAWFATFNETFGDYSEKAHELLNTKLEQWAEEAVARGGFHNTTALLIQYENYRDWIVNHNVAYSELFLDTAGVASFDVWDLLPFTRGYVHILDKDPYLHHFAYDPQYFLNELDLLGQAAATQLARNISNSGAMQTYFAGETIPGDNLAYDADLSAWTEYIPYHFRPNYHGVGTCSMMPKEMGGVVDNAARVYGVQGLRVIDGSIPPTQMSSHVMTVFYAMALKISDAILEDYASMQ"}}, "assay": "Hampton Screens I and II, vapor diffusion", "conditions": "glycan lost; control: glycosylated GOx from P. pastoris"}
{"protein": "B1", "values": [{"measurement": "other: crystallisability", "value": "increases"}]}
